Source: patent publication US20140303084A1 (Biogen, published 2014)
Square brackets hold non-standard residues; d marks the D form. Ends that are not written are not given here. NMeL = CN[C@@H](CC(C)C)C(=O)O

B1: HQQRRKLTCLAGYCWLFVLGPS (peptide)
peptide: HQQRRKLTCLAGYCWLFVLGPS
modifications: not fully specified; cysteine pairing not given here
B2: GDSGRKLSCLGSYCWLSVQFMA (peptide)
peptide: GDSGRKLSCLGSYCWLSVQFMA
B3: RGRSAKLTCLASYCWLFFGVIL (peptide)
peptide: RGRSAKLTCLASYCWLFFGVIL
B4: KK-k-MeLeu-TCLASYCWLF (peptide)
peptide: KK[dK][NMeL]TCLASYCWLF
modifications: not fully specified; printed as KK-k-MeLeu-TCLASYCWLF; cysteine pairing not given here
B5: K-k-MeLeu-TCLASYCWLF (peptide)
peptide: K[dK][NMeL]TCLASYCWLF
modifications: not fully specified; printed as K-k-MeLeu-TCLASYCWLF; cysteine pairing not given here
B6: SRQSDKPTCLAISCSLLTSNVR (peptide)
peptide: SRQSDKPTCLAISCSLLTSNVR
B7: VSGTGRLTCVASYCWMFQLGSF (peptide)
peptide: VSGTGRLTCVASYCWMFQLGSF
B8: Ac-K-k-MeLeu-TCLASYCWLF (peptide)
peptide: Ac-K[dK][NMeL]TCLASYCWLF
modifications: cysteine pairing not given here
B9: RSTVSQMRCLASYCWLFPALVS (peptide)
peptide: RSTVSQMRCLASYCWLFPALVS
B10: KRYVYRQMCLVSACWLLQLGYA (peptide)
peptide: KRYVYRQMCLVSACWLLQLGYA
B11: QEQPAKLTCRGSYCWLFKRGDQ (peptide)
peptide: QEQPAKLTCRGSYCWLFKRGDQ
B12: R-k-MeLeu-TCLASYCWLF (peptide)
peptide: R[dK][NMeL]TCLASYCWLF
modifications: cysteine pairing not given here
B13: RRAAGKLQCLASYCWLFWTGIA (peptide)
peptide: RRAAGKLQCLASYCWLFWTGIA
B14: HGLADRLTCLSSDCWLQPFGTS (peptide)
peptide: HGLADRLTCLSSDCWLQPFGTS
B15: RGRSAKLRCLASYCWLFFGVIL (peptide)
peptide: RGRSAKLRCLASYCWLFFGVIL
B16: k-MeLeu-TCLAS-(Y-OMe)-CWLF (peptide)
peptide: [dK][NMeL]TCLASYCWLF
modifications: not fully specified (residue 8); cysteine pairing not given here
B17: RQLWNKLTCLASYCALIGLSGT (peptide)
peptide: RQLWNKLTCLASYCALIGLSGT
B18: RGSVHQPTCLGGYCGRLHSSWV (peptide)
peptide: RGSVHQPTCLGGYCGRLHSSWV
B19: KGAYQKLTCLASYCLLFLLTAQ (peptide)
peptide: KGAYQKLTCLASYCLLFLLTAQ
B20: QAKMLKLTCLASYCWLFWVTRS (peptide)
peptide: QAKMLKLTCLASYCWLFWVTRS
B21: HLGSPKLTCGASQCWLLNHEVS (peptide)
peptide: HLGSPKLTCGASQCWLLNHEVS
B22: k-MeLeu-TCLASYCWLA (peptide)
peptide: [dK][NMeL]TCLASYCWLA
modifications: not fully specified (C-terminus); printed as k-MeLeu-TCLASYCWLA; cysteine pairing not given here
B23: k-k-MeLeu-TCLASYCWLF (peptide)
peptide: KKLTCLASYCWLF
modifications: not fully specified; D-Lys 1, D-Lys 2, MeLeu 3
B24: RRAPAKLQCLASYCWLFWTGIA (peptide)
peptide: RRAPAKLQCLASYCWLFWTGIA
B25: NGGMQKPACLASQCWLFANPLP (peptide)
peptide: NGGMQKPACLASQCWLFANPLP
B26: k-MeLeu-TCLASYCQLF (peptide)
peptide: [dK][NMeL]TCLASYCQLF
modifications: not fully specified (C-terminus); printed as k-MeLeu-TCLASYCQLF; cysteine pairing not given here
B27: HDSLDQLTCLASVCQLASMGAR (peptide)
peptide: HDSLDQLTCLASVCQLASMGAR
B28: VARASKVECLASYCQLFVGGEV (peptide)
peptide: VARASKVECLASYCQLFVGGEV
B29: KKK-k-MeLeu-TCLASYCWLF (peptide)
peptide: KKK[dK][NMeL]TCLASYCWLF
modifications: not fully specified; printed as KKK-k-MeLeu-TCLASYCWLF; cysteine pairing not given here
B30: GASGRRRTCVASYCLLFQSGLP (peptide)
peptide: GASGRRRTCVASYCLLFQSGLP
B31: SKWEHQRGCLANNCWLFTLAPG (peptide)
peptide: SKWEHQRGCLANNCWLFTLAPG
B32: RRAPGKLQCLASYCWLFATAIA (peptide)
peptide: RRAPGKLQCLASYCWLFATAIA
B33: RHSNHNLTCQASYCWLLPAGLQ (peptide)
peptide: RHSNHNLTCQASYCWLLPAGLQ
B34: RGRSAKLRCLASYCWLFFTVIL (peptide)
peptide: RGRSAKLRCLASYCWLFFTVIL
B35: VSGTGKLTCLASYCWLFQLGSF (peptide)
peptide: VSGTGKLTCLASYCWLFQLGSF
B36: VSGTGRLTCVASYCWMFQLGIF (peptide)
peptide: VSGTGRLTCVASYCWMFQLGIF
B37: (KLTCLASYCWLFG)2═N-O-(CH2)3-O-N═ (peptide)
peptide: KLTCLASYCWLFG
modifications: cysteine pairing not given here; also: dimer: two copies joined by ═N-O-(CH2)3-O-N═ (linker 1) at residue 13
B38: DAKVAKLRCLGSQCWLLQYAPG (peptide)
peptide: DAKVAKLRCLGSQCWLLQYAPG
B39: FPIQHKLTCLSSDCWLFPSHSY (peptide)
peptide: FPIQHKLTCLSSDCWLFPSHSY

Molecular target: human Factor IXa (human, UniProt P00740 47-191; P00740 227-461)
Assay: cell-based or functional assay

Row | Binder | EC50 [µM], FXa generation assay
1 | B1 | > 1 µM
2 | B2 | < 0.5 µM
3 | B3 | < 0.5 µM
4 | B4 | > 10 µM
5 | B5 | > 1 µM
6 | B6 | > 50 µM
7 | B7 | < 0.5 µM
8 | B8 | < 0.5 µM
9 | B9 | < 0.5 µM
10 | B10 | < 0.5 µM
11 | B11 | > 50 µM
12 | B12 | > 1 µM
13 | B13 | < 0.5 µM
14 | B14 | > 50 µM
15 | B15 | < 0.5 µM
16 | B16 | < 0.5 µM
17 | B17 | > 1 µM
18 | B18 | > 50 µM
19 | B19 | < 0.5 µM
20 | B20 | < 0.5 µM

Row | Binder | EC50 [µM], FXa generation assay
21 | B21 | > 50 µM
22 | B22 | > 1 µM
23 | B23 | > 2.5 µM
24 | B24 | < 0.5 µM
25 | B25 | > 1 µM
26 | B26 | > 1 µM
27 | B27 | > 1 µM
28 | B28 | > 1 µM
29 | B29 | > 20 µM
30 | B30 | > 25 µM
31 | B31 | > 50 µM
32 | B32 | < 0.5 µM
33 | B33 | > 1 µM
34 | B34 | < 0.5 µM
35 | B35 | < 0.5 µM
36 | B36 | < 0.5 µM
37 | B37 | < 0.5 µM
38 | B38 | < 0.5 µM
39 | B39 | > 50 µM
